Reference: patent US6372467

Columns and labels:
[1] = molecular target: Glutathione-S-transferase (GST)-tagged S6

Protein	in vitro kinase assay (phosphorylation of GST-S6 by anti-HA immunoprecipitates) [1]	in vitro kinase assay (screen of substrates) (histone H2B)
hemagglutinin (HA)-tagged p54^S6K (protein) MAAVFDLDLETEEGSEGEGEPELSPADACPLAELRAAGLEPVGHYEEVELTETSVNVGPERIGPHCFELLRVLGKGGYGKVFQVRKVQGTNLGKIYAMKVLRKAKIVRNAKDTAHTRAERNILESVKHPFIVELAYAFQTGGKLYLILECLSGGELFTHLEREGIFLEDTACFYLAEITLALGHLHSQGIIYRDLKPENIMLSSQGHIKLTDFGLCKESIHEGAVTHTFCGTIEYMAPEILVRSGHNRAVDWWSLGALMYDMLTGSPPFTAENRKKTMDKIIRGKLALPPYLTPDARDLVKKFLKRNPSQRIGGGPGDAADVQRHPFFRHMNWDDLLAWRVDPPFRPCLQSEEDVSQFDTRFTRQTPVDSPDDTALSESANQAFLGFTYVAPSVLDSIKEGFSFQPKLRSPRRLNSSPRVPVSPLKFSPFEGFRPSPSLPEPTELPLPPLLPPPPPSTTAPLPIRPPSGTKKSKRGRGRPGR	p54^S6K kinase activity towards S6 was stimulated by serum treatment of the cells	p54^S6K can phosphorylate both S6 and histone H2B
HA-p54^S6K KR (protein) MAAVFDLDLETEEGSEGEGEPELSPADACPLAELRAAGLEPVGHYEEVELTETSVNVGPERIGPHCFELLRVLGKGGYGKVFQVRKVQGTNLGKIYAMRVLRKAKIVRNAKDTAHTRAERNILESVKHPFIVELAYAFQTGGKLYLILECLSGGELFTHLEREGIFLEDTACFYLAEITLALGHLHSQGIIYRDLKPENIMLSSQGHIKLTDFGLCKESIHEGAVTHTFCGTIEYMAPEILVRSGHNRAVDWWSLGALMYDMLTGSPPFTAENRKKTMDKIIRGKLALPPYLTPDARDLVKKFLKRNPSQRIGGGPGDAADVQRHPFFRHMNWDDLLAWRVDPPFRPCLQSEEDVSQFDTRFTRQTPVDSPDDTALSESANQAFLGFTYVAPSVLDSIKEGFSFQPKLRSPRRLNSSPRVPVSPLKFSPFEGFRPSPSLPEPTELPLPPLLPPPPPSTTAPLPIRPPSGTKKSKRGRGRPGR	The KR mutation of p54^S6K abolished the kinase activity in an in vitro kinase assay	–
